Test results as given in publication PMC4783357.

System: T1, His-OsWOX3A (Oryza sativa), ORF:198cabac
T1 sequence: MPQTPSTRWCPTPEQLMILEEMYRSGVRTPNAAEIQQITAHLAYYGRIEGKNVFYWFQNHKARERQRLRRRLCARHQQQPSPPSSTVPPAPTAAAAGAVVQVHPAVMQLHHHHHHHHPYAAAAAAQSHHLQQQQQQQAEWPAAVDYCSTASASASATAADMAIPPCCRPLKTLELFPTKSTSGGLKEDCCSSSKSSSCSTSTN
Assay: EMSA
Details: 10 mM Tris pH 7.5, 50 mM KCl, 1 mM DTT (from 10x buffer) plus about 50 mM KCl, 5 mM MgCl2, 10 mM EDTA, 2.5% glycerol, 0.05% NP-40, 50 ng/ul poly(dG-dC); room …

“TACAAAACTCACTACTAGTAATTAAGTGTTGAGGGTTCGAGAACAAATTAATTAATCGCCAAATAATGCATCACAAACATCATCAACCTAGTTATCGGTT (double strand) [KAO-W1]” was tested, and the binding was “binds”.
